{"source": "the RNAGym collection of RNA variant scans (doi:10.7554/elife.80360)", "parents": {"B1": {"name": "Hairpin Ribozyme (parent)", "chain": "GUCCUCUUUCACGUGCGCGUGAAAGAGAGAAGUGAACCAGAGAAACACACGUUGUGGUAUAUUACCUGGUA"}}, "data": [{"variants_of": "B1", "assay": "self-cleavage, relative activity (ratio to wild type); higher = more cleavage; co-transcriptional", "values": [{"variant": "G17A A64C", "self-cleavage": 0.143}, {"variant": "G17A C18A", "self-cleavage": 1.2}, {"variant": "G17A C37U", "self-cleavage": 0.463}, {"variant": "G17A C48U", "self-cleavage": 0.176}, {"variant": "G17A C50A", "self-cleavage": 0.21}, {"variant": "G17A C65G", "self-cleavage": 0.485}, {"variant": "G17A C66G", "self-cleavage": 0.268}, {"variant": "G17A G19U", "self-cleavage": 1.02}, {"variant": "G17A G21U", "self-cleavage": 0.901}, {"variant": "G17A G25U", "self-cleavage": 0.494}, {"variant": "G17A G27C", "self-cleavage": 0.074}, {"variant": "G17A G32C", "self-cleavage": 0.0599}, {"variant": "G17A G32U", "self-cleavage": 0.123}, {"variant": "G17A G40C", "self-cleavage": 0.153}, {"variant": "G17A G51U", "self-cleavage": 1.06}, {"variant": "G17A G54C", "self-cleavage": 0.429}, {"variant": "G17A G54U", "self-cleavage": 0.667}, {"variant": "G17A G57A", "self-cleavage": 0.228}, {"variant": "G17A G57U", "self-cleavage": 0.301}, {"variant": "G17A G68U", "self-cleavage": 0.243}, {"variant": "G17A G69U", "self-cleavage": 0.203}, {"variant": "G17A U20C", "self-cleavage": 1.13}, {"variant": "G17A U33A", "self-cleavage": 0.12}, {"variant": "G17A U33G", "self-cleavage": 0.0712}, {"variant": "G17A U52A", "self-cleavage": 0.912}, {"variant": "G17A U58C", "self-cleavage": 0.869}, {"variant": "G17A U58G", "self-cleavage": 0.78}, {"variant": "G17A U60C", "self-cleavage": 1.36}, {"variant": "G17A U62C", "self-cleavage": 0.166}, {"variant": "G17A U62G", "self-cleavage": 0.0926}, {"variant": "G17C A22U", "self-cleavage": 0.644}, {"variant": "G17C A23C", "self-cleavage": 0.603}, {"variant": "G17C A23U", "self-cleavage": 0.572}, {"variant": "G17C A24C", "self-cleavage": 0.614}, {"variant": "G17C A26G", "self-cleavage": 0.709}, {"variant": "G17C A26U", "self-cleavage": 0.414}, {"variant": "G17C A28C", "self-cleavage": 0.347}, {"variant": "G17C A28G", "self-cleavage": 0.957}, {"variant": "G17C A28U", "self-cleavage": 0.28}, {"variant": "G17C A30G", "self-cleavage": 0.0659}, {"variant": "G17C A30U", "self-cleavage": 0.118}, {"variant": "G17C A31C", "self-cleavage": 0.172}, {"variant": "G17C A31U", "self-cleavage": 0.0868}, {"variant": "G17C A35C", "self-cleavage": 1.04}, {"variant": "G17C A35G", "self-cleavage": 0.801}, {"variant": "G17C A36U", "self-cleavage": 0.356}, {"variant": "G17C A41U", "self-cleavage": 1.27}, {"variant": "G17C A43C", "self-cleavage": 0.118}, {"variant": "G17C A43G", "self-cleavage": 0.131}, {"variant": "G17C A44C", "self-cleavage": 0.136}, {"variant": "G17C A44G", "self-cleavage": 0.121}, {"variant": "G17C A45U", "self-cleavage": 0.12}, {"variant": "G17C A49C", "self-cleavage": 0.146}, {"variant": "G17C A59U", "self-cleavage": 0.122}, {"variant": "G17C A64C", "self-cleavage": 0.186}, {"variant": "G17C A71C", "self-cleavage": 1.18}, {"variant": "G17C A71G", "self-cleavage": 0.694}, {"variant": "G17C C18U", "self-cleavage": 0.902}, {"variant": "G17C C37U", "self-cleavage": 0.542}, {"variant": "G17C C46U", "self-cleavage": 0.113}, {"variant": "G17C C48A", "self-cleavage": 0.173}, {"variant": "G17C C50A", "self-cleavage": 0.248}, {"variant": "G17C C50U", "self-cleavage": 0.286}, {"variant": "G17C C65G", "self-cleavage": 0.339}, {"variant": "G17C C65U", "self-cleavage": 0.24}, {"variant": "G17C C66U", "self-cleavage": 0.346}, {"variant": "G17C G19U", "self-cleavage": 0.502}, {"variant": "G17C G21A", "self-cleavage": 0.618}, {"variant": "G17C G21C", "self-cleavage": 0.494}, {"variant": "G17C G25A", "self-cleavage": 0.417}, {"variant": "G17C G25U", "self-cleavage": 0.505}, {"variant": "G17C G27A", "self-cleavage": 0.419}, {"variant": "G17C G27C", "self-cleavage": 0.154}, {"variant": "G17C G27U", "self-cleavage": 0.116}, {"variant": "G17C G29C", "self-cleavage": 0.113}, {"variant": "G17C G32A", "self-cleavage": 0.131}, {"variant": "G17C G32U", "self-cleavage": 0.0811}, {"variant": "G17C G40A", "self-cleavage": 0.253}, {"variant": "G17C G40C", "self-cleavage": 0.168}, {"variant": "G17C G42C", "self-cleavage": 0.306}, {"variant": "G17C G42U", "self-cleavage": 0.134}, {"variant": "G17C G51A", "self-cleavage": 0.718}, {"variant": "G17C G51C", "self-cleavage": 0.668}, {"variant": "G17C G54U", "self-cleavage": 0.417}, {"variant": "G17C G56C", "self-cleavage": 0.171}, {"variant": "G17C G56U", "self-cleavage": 0.185}, {"variant": "G17C G68C", "self-cleavage": 0.238}, {"variant": "G17C G69C", "self-cleavage": 0.124}, {"variant": "G17C U52A", "self-cleavage": 0.816}, {"variant": "G17C U52G", "self-cleavage": 0.821}, {"variant": "G17C U55C", "self-cleavage": 0.216}, {"variant": "G17C U58G", "self-cleavage": 0.432}, {"variant": "G17C U60A", "self-cleavage": 0.582}, {"variant": "G17C U62A", "self-cleavage": 0.115}, {"variant": "G17C U63C", "self-cleavage": 0.276}, {"variant": "G17C U67G", "self-cleavage": 0.161}, {"variant": "G17U A23C", "self-cleavage": 0.898}, {"variant": "G17U A23G", "self-cleavage": 0.632}, {"variant": "G17U A24U", "self-cleavage": 0.865}, {"variant": "G17U A26U", "self-cleavage": 0.632}, {"variant": "G17U A30G", "self-cleavage": 0.134}, {"variant": "G17U A31G", "self-cleavage": 0.6}, {"variant": "G17U A39G", "self-cleavage": 0.29}, {"variant": "G17U A43C", "self-cleavage": 0.0947}, {"variant": "G17U A43U", "self-cleavage": 0.0903}, {"variant": "G17U A44G", "self-cleavage": 0.273}, {"variant": "G17U A45C", "self-cleavage": 0.156}, {"variant": "G17U A47C", "self-cleavage": 0.347}, {"variant": "G17U A49C", "self-cleavage": 0.177}, {"variant": "G17U A59G", "self-cleavage": 0.192}, {"variant": "G17U A64C", "self-cleavage": 0.245}, {"variant": "G17U A64U", "self-cleavage": 0.16}, {"variant": "G17U A71C", "self-cleavage": 1.39}, {"variant": "G17U C18A", "self-cleavage": 0.966}, {"variant": "G17U C18G", "self-cleavage": 0.979}, {"variant": "G17U C18U", "self-cleavage": 0.926}, {"variant": "G17U C37G", "self-cleavage": 0.256}, {"variant": "G17U C37U", "self-cleavage": 0.564}, {"variant": "G17U C38G", "self-cleavage": 0.158}, {"variant": "G17U C48G", "self-cleavage": 0.0807}, {"variant": "G17U C48U", "self-cleavage": 0.11}, {"variant": "G17U C50A", "self-cleavage": 0.232}, {"variant": "G17U C50U", "self-cleavage": 0.326}, {"variant": "G17U C65A", "self-cleavage": 0.892}, {"variant": "G17U C65G", "self-cleavage": 0.269}, {"variant": "G17U G19A", "self-cleavage": 0.629}, {"variant": "G17U G21A", "self-cleavage": 0.491}, {"variant": "G17U G25A", "self-cleavage": 0.653}, {"variant": "G17U G25C", "self-cleavage": 0.682}, {"variant": "G17U G27A", "self-cleavage": 0.374}, {"variant": "G17U G27C", "self-cleavage": 0.165}, {"variant": "G17U G27U", "self-cleavage": 0.239}, {"variant": "G17U G29C", "self-cleavage": 0.105}, {"variant": "G17U G40A", "self-cleavage": 0.342}, {"variant": "G17U G40C", "self-cleavage": 0.18}, {"variant": "G17U G42C", "self-cleavage": 0.281}, {"variant": "G17U G54A", "self-cleavage": 0.642}, {"variant": "G17U G54U", "self-cleavage": 0.579}, {"variant": "G17U G56A", "self-cleavage": 0.194}, {"variant": "G17U G56C", "self-cleavage": 0.126}, {"variant": "G17U G57A", "self-cleavage": 0.201}, {"variant": "G17U G57C", "self-cleavage": 0.151}, {"variant": "G17U G57U", "self-cleavage": 0.264}, {"variant": "G17U G68A", "self-cleavage": 0.258}, {"variant": "G17U G69C", "self-cleavage": 0.296}, {"variant": "G17U U20A", "self-cleavage": 0.59}, {"variant": "G17U U33A", "self-cleavage": 0.116}, {"variant": "G17U U52A", "self-cleavage": 1.21}, {"variant": "G17U U52G", "self-cleavage": 0.8}, {"variant": "G17U U55G", "self-cleavage": 0.351}, {"variant": "G17U U60C", "self-cleavage": 1.35}, {"variant": "G17U U62C", "self-cleavage": 0.138}, {"variant": "G17U U63A", "self-cleavage": 0.128}, {"variant": "C18A A22C", "self-cleavage": 1.04}, {"variant": "C18A A22U", "self-cleavage": 0.794}, {"variant": "C18A A23G", "self-cleavage": 1.02}, {"variant": "C18A A24G", "self-cleavage": 0.95}, {"variant": "C18A A26C", "self-cleavage": 0.527}, {"variant": "C18A A26G", "self-cleavage": 0.888}, {"variant": "C18A A26U", "self-cleavage": 0.898}, {"variant": "C18A A28C", "self-cleavage": 0.492}, {"variant": "C18A A28G", "self-cleavage": 1.43}, {"variant": "C18A A30U", "self-cleavage": 0.16}, {"variant": "C18A A31G", "self-cleavage": 0.746}, {"variant": "C18A A31U", "self-cleavage": 0.0438}, {"variant": "C18A A35C", "self-cleavage": 1.2}, {"variant": "C18A A36C", "self-cleavage": 0.711}]}]}
